Data published in patent US20160053007A1.

Biological target: DR3 on mouse CD4+ T cells (mouse)
Experiment: cell-based or functional assay

DR3 on mouse CD4+ T cells (mouse), sequence (Q9QZZ6 19-201): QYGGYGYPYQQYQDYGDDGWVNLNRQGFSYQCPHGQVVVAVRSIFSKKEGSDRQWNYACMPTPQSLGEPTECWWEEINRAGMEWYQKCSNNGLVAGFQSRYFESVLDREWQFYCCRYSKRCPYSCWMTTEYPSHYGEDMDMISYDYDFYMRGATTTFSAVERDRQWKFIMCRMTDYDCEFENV

IL-2 production by activated T cells, increase by TL1A: < 2 fold
IL-4 production by activated T cells, increase by TL1A: 10 fold
interferon-γ production by activated T cells, increase by TL1A: < 2 fold
Substance: recombinant mouse TL1A (from UniProt Q5UBV8 76-252) (ligand)
